Like-named read-outs stand apart in the source and are kept apart here.
How the values were obtained:
Experiment in all cases: cell-based or functional assay
[1] = target: receptor of ecotropic murine leukaemia virus Rec1 (murine) (UniProt Q09143)
[2] = target: receptor of ecotropic murine leukaemia virus Rec1 (murine) (UniProt Q09143); remark: listed apart in the source
[3] = target: receptor of ecotropic murine leukaemia virus Rec1 (murine) (UniProt Q09143); remark: listed apart in the source

Chain of wild type envelope of ecotropic Moloney murine leukaemia virus (P03385 34-665 limits assumed): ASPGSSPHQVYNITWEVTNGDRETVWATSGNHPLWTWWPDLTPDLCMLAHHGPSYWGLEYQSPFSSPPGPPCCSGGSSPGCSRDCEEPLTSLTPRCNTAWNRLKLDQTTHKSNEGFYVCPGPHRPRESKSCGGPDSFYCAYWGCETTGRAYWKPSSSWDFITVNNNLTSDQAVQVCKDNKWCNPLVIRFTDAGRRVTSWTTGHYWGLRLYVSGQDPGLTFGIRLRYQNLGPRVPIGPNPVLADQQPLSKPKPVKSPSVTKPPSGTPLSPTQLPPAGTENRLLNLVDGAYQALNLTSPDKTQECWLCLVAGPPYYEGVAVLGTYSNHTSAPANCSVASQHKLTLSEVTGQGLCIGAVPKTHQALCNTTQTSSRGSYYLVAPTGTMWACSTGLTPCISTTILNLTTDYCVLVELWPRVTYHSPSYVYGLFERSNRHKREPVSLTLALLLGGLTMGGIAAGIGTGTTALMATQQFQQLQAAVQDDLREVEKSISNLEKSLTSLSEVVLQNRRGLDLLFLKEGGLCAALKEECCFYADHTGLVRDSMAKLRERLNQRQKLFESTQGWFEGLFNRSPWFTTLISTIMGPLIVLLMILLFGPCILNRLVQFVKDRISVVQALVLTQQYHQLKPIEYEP
Chain of envelope protein of ecotropic Friend murine leukaemia virus molecular clone PVC-211 (P26803 35-676 limits assumed): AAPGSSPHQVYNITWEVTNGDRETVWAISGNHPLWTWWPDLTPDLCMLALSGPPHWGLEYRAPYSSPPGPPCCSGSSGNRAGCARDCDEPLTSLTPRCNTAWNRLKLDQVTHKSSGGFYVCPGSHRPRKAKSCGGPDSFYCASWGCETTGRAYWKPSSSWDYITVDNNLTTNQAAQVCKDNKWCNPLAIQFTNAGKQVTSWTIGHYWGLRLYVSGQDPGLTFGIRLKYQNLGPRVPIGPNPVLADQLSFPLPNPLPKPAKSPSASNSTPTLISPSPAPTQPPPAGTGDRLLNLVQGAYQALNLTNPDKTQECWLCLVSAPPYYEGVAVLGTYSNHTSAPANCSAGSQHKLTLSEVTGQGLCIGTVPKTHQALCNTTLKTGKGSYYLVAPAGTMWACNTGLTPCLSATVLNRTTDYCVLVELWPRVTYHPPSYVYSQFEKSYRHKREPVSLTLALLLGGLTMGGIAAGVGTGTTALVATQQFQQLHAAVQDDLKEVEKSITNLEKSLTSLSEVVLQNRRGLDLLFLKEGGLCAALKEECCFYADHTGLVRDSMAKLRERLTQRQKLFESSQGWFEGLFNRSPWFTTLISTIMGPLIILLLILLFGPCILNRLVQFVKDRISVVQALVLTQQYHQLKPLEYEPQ
Chain of receptor of ecotropic murine leukaemia virus Rec1 (murine) (Q09143 whole entry): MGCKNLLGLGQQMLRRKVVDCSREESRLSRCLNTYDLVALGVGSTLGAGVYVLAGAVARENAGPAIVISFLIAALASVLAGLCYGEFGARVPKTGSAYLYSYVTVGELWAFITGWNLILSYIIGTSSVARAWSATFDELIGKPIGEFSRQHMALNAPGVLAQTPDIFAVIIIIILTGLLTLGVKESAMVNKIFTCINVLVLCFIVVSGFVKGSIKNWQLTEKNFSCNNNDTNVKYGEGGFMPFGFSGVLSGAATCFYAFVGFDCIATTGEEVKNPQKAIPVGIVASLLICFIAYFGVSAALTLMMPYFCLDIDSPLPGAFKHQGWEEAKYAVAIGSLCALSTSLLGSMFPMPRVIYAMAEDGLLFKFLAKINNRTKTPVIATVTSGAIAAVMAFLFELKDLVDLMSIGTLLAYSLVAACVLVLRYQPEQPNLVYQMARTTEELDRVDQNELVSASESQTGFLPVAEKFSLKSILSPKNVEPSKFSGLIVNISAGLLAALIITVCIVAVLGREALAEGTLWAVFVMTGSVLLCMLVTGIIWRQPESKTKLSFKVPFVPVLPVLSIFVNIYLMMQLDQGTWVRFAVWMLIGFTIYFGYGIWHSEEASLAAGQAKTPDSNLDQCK

Substance | transduction efficiency (% GFP positive cells) in CHO-S Rec1-I-puro cells [1] [%] | fold gene transfer efficiency, CHO-S Rec1-I-puro cells against CHO-S cells [2] [fold] | fold transduction efficiency in CHO-S Rec1-I-puro cells, MLV (PVC-211 Env) against MLV (wtEnv) vector particles [2] [fold] | puromycin-resistant cell colonies counted in ten fields, CHO-S Rec1-I-neo cells transduced once [2] [colonies] | puromycin-resistant cell colonies counted in ten fields, CHO-S Rec1-I-neo cells transduced three times [2] [colonies] | transduction efficiency (% GFP positive cells) in BHK Rec1-I-puro cells [2] [%] | transduction efficiency (% GFP positive cells) in CHO-S Rec1-I-puro cells [2] [%] | transduction efficiency (% GFP positive cells) in HT1080 Rec1-I-neo cells [2] [%] | transduction efficiency (% GFP positive cells) in CHO T-REx Rec1-I-neo cells [3] [%] | transduction efficiency (% GFP positive cells) in CHO-K1 Rec1-I-neo cells [3] [%] | transduction efficiency (% GFP positive cells) in CHO-S Rec1-I-puro cells [3] [%] | fold gene transfer efficiency, CHO-S Rec1-I-puro cells against parental CHO-S cells [2] [fold] | fold gene transfer, CHO-S Rec1-I-puro cells against CHO-S cells [2] [fold] | gene transfer efficiency (% GFP positive cells) in CHO-S Rec1-I-puro cells [2] [%]
envelope protein of ecotropic Friend murine leukaemia virus molecular clone PVC-211 (from UniProt P26803 35-676) | 19 | 13 | > 33 | 41 | 230 | 31 | 15.5 | 16 | 71.1 | 48.3 | 73 |  |  | 
wild type envelope of ecotropic Moloney murine leukaemia virus (from UniProt P03385 34-665) | 0.56 |  |  |  |  | 4.72 | 0.55 | 0.21 | 9.95 | 14.7 | 12.1 | 3 | 3.7 | 1.14
